Experimental data from US20220175781A1, “CD40L COMPOSITIONS AND METHODS FOR TUNABLE REGULATION” (Obsidian Therapeutics, Inc., priority 2019, published 2022).
Blank lines part the entries; values can stand above or below the molecule they belong to.

Experiments:
[1] = biological target: OT-001669 (Linker (MH); CD40L (aa 14-261 of WT); stop) (human) (UniProt P29965); assay: cell-based or functional assay
[2] = biological target: OT-001668 (Linker (MH); CD40L (aa 1-261 of WT, (S110-G116) del); stop) (human) (UniProt P29965); assay: cell-based or functional assay
[3] = biological target: OT-001661 (MH Linker; CD40L; stop) (human) (UniProt P29965); assay: cell-based or functional assay
HEK-Blue™ CD40 cells = assay: HEK-Blue CD40 SEAP reporter co-culture with transduced Jurkat cells; type: cell-based; details: ligand 24 h (1 μM Shield-1, 50 μM TMP or 1 μM Bazedoxifene), recombinant soluble CD40L as standard
Description: Jurkat cells transduced with OT-001661, OT-001685, OT-001662, OT-001666, or OT-001667 were co-cultured with HEK-Blue™ CD40 cells (Invivogen, San Diego, Calif.). Cocultures were treated with ligands (1 μM Shield-1, 50 μM TMP, 1 μM Bazedoxifene (BZD) or vehicle control) for 24 hours and the secreted embryonic alkaline phosphatase (SEAP) reporter levels were measured in the media. All vehicle treated samples had background SEAP activity. Recombinant soluble CD40L was used as the standard in the experiments.

CD40 = CD40 (UniProt P25942); assay: cell-based or functional assay
HEK293T cells = assay: Soluble CD40L ELISA, transiently transfected HEK293T cells; type: cell-based, human; details: HEK293T cells
Description: Soluble CD40L (sCD40L) constructs OT-001672, OT-001686, OT-001673, OT-001674, OT-001677, and OT-001684 were transiently transfected into HEK293T cells. Cells were treated with one of the following ligands 1 μM Shield-1, 50 μM TMP, 1 μM Bazedoxifene (BZD) or vehicle control.
The pg/mL levels of soluble CD40L were measured by ELISA (Table 14). Recombinant soluble CD40L was used as the standard in the experiments.

HEK-Blue CD40 = HEK-Blue CD40 assay with sCD40L constructs; type: cell-based; details: ligand treated
Jurkat cells = assay: DHFR regulated CD40L expression, transduced Jurkat cells (flow cytometry); type: cell-based
Description: Jurkat cells were transduced with lentiviruses corresponding to OT-001662, OT-001962, OT-001961, OT-001963. 24 hours after transduction, cells were split and treated with DMSO or 50 μM TMP for another 24 hours until flow cytometry-based analysis. The results are shown in Table 37 where SR indicates stabilization ration.

[4] = test system: T cells (CD4 and CD8 positive); assay: TMP dose response of OT-001962, CD40L MFI in CD4 and CD8 positive T cells; type: cell-based
Description: Dose response with TMP in T cells were conducted for OT-001962. Expression of CD40L was measured at (a) day 4 after transduction, (b) after freezing and thawing the cells or (c) after freezing and thawing the cells followed by restimulation with CD3/CD28 beads.

T cells (CD4+ and CD8+) = assay: Regulation of CD40L in T cells by different drug responsive domains; type: cell-based
HEK 293T cells = assay: hDHFR regulated CD40L surface expression, HEK 293T cells (flow cytometry); type: cell-based, human; details: 50 μM TMP 24 hours
Description: HEK 293T cells were transiently […] with hDHFR regulated constructs namely OT-001962, OT-001961, OT-001963 for 24 hours. Following transfection, cells were treated with 50 μM TMP for 24 hours and CD40L cell surface expression was measured using flow cytometry. […] CD40L expression in the absence of ligand was virtually undetectable.

CD40, sequence (P25942 21-277 limits assumed): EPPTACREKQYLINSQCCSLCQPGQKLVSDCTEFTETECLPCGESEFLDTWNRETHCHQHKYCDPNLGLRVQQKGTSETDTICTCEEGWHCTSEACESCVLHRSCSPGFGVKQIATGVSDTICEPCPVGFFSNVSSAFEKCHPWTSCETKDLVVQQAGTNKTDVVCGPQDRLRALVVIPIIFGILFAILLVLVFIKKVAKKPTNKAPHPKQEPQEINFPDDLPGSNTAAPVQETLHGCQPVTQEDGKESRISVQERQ

CD40L levels in supernatant (shedding, ELISA) of Jurkat cells cultured 6 hours with 1.25 µg/ml hCD40-Fc; untreated 2137.69 [1]: 8440
CD40L levels in supernatant (shedding, ELISA) of Jurkat cells cultured 6 hours with 1.25 µg/ml hCD40-Fc; untreated 10 [2]: 10
CD40L levels in supernatant (shedding, ELISA) of Jurkat cells cultured 6 hours with 1.25 µg/ml hCD40-Fc; untreated 1382.06 [3]: 3600
Molecule: recombinant human CD40-Fc receptor (from UniProt P25942 21-193) (Fc fusion)

SEAP reporter of HEK-Blue CD40 cells co-cultured 24 hours with transduced Jurkat cells plus 1 µM Bazedoxifene, given as Soluble CD40L (pg/ml) against a recombinant soluble CD40L standard (CD40): 2570 pg/mL
B1: OT-001667 (Met; ER (aa 305-549 of WT, T371A, L384M, M421G, N519S, G521R, Y537S); Histidine; CD40L; stop) (ligand)
chain: MSLALSLTADQMVSALLDAEPPILYSEYDPTRPFSEASMMGLLTNLADRELVHMINWAKRVPGFVDLALHDQVHLLECAWMEILMIGLVWRSMEHPGKLLFAPNLLLDRNQGKCVEGGVEIFDMLLATSSRFRMMNLQGEEFVCLKSIILLNSGVYTFLSSTLKSLEEKDHIHRVLDKITDTLIHLMAKAGLTLQQQHQRLAQLLLILSHIRHMSSKRMEHLYSMKCKNVVPLSDLLLEMLDAHRLHMIETYNQTSPRSAATGLPISMKIFMYLLTVFLITQMIGSALFAVYLHRRLDKIEDERNLHEDFVFMKTIQRCNTGERSLSLLNCEEIKSQFEGFVKDIMLNKEETKKENSFEMQKGDQNPQIAAHVISEASSKTTSVLQWAEKGYYTMSNNLVTLENGKQLTVKRQGLYYIYAQVTFCSNREASSQAPFIASLCLKSPGRFERILLRAANTHSSAKPCGQQSIHLGGVFELQPGASVFVNVTDPSQVSHGTGFTSFGLLKL
Soluble CD40L (HEK-Blue™ CD40 cells): 2565.91 pg/mL

B2: OT-001672: Soluble CD40L (sCD40L) construct (protein)
chain: GSMHMQKGDQNPQIAAHVISEASSKTTSVLQWAEKGYYTMSNNLVTLENGKQLTVKRQGLYYIYAQVTFCSNREASSQAPFIASLCLKSPGRFERILLRAANTHSSAKPCGQQSIHLGGVFELQPGASVFVNVTDPSQVSHGTGFTSFGLLKL
Stabilization Ratio (HEK293T cells; soluble CD40L +Ligand versus Vehicle): 3.3
functionality in HEK-Blue CD40 assay (HEK-Blue CD40): higher functionality

B3: OT-001962: hDHFR regulated CD40L construct (protein)
chain: MVGSLNCIVAVSQNMGIGKNGDLPWPPLRNEFRYFERMTTTSSVEGKQNLVIMGKKTWFSIPEKNRPLKGRINLVLSRELKEPPQGAHFLSRSLDDALKLTEHPELANKVDMVWIVGGSSVIKEAMNHPGHLKLFVTRIMQDFESDTFFPEIDLEKYKLLPEYPGVLSDVQEEKGIKYKFEVYEKNDHMIETYNQTSPRSAATGLPISMKIFMYLLTVFLITQMIGSALFAVYLHRRLDKIEDERNLHEDFVFMKTIQRCNTGERSLSLLNCEEIKSQFEGFVKDIMLNKEETKKENSFEMQKGDQNPQIAAHVISEASSKTTSVLQWAEKGYYTMSNNLVTLENGKQLTVKRQGLYYIYAQVTFCSNREASSQAPFIASLCLKSPGRFERILLRAANTHSSAKPCGQQSIHLGGVFELQPGASVFVNVTDPSQVSHGTGFTSFGLLKL
stabilization ratio, ranking among the hDHFR constructs (Jurkat cells; 50 μM TMP versus DMSO): highest stabilization ratio
TMP dependent regulation (Jurkat cells; 50 μM TMP versus DMSO 24 hours): strong TMP dependent regulation
% CD40L expression (Jurkat cells; TMP (50 μM)): 50%
SR (Jurkat cells; TMP (50 μM) versus Vehicle): 16.7
% CD40L expression (Jurkat cells; Vehicle (DMSO)): 3%
CD40L expression (MFI) ([4]; CD4+, Day 4, TMP 0.1 nM): 388
CD40L expression (MFI) ([4]; CD4+, Day 4, TMP 1 nM): 396
CD40L expression (MFI) ([4]; CD4+, Day 4, TMP 10 nM): 405
CD40L expression (MFI) ([4]; CD4+, Day 4, TMP 100 nM): 388
CD40L expression (MFI) ([4]; CD4+, Day 4, TMP 1000 nM): 480
CD40L expression (MFI) ([4]; CD4+, Day 4, TMP 10000 nM): 1067
CD40L expression (MFI) ([4]; CD4+, Day 4, TMP 100000 nM): 5917
CD40L expression (MFI) ([4]; CD4+, Post Thaw, TMP 0.1 nM): 153
CD40L expression (MFI) ([4]; CD4+, Post Thaw, TMP 1 nM): 156
CD40L expression (MFI) ([4]; CD4+, Post Thaw, TMP 10 nM): 158
CD40L expression (MFI) ([4]; CD4+, Post Thaw, TMP 100 nM): 165
CD40L expression (MFI) ([4]; CD4+, Post Thaw, TMP 1000 nM): 166
CD40L expression (MFI) ([4]; CD4+, Post Thaw, TMP 10000 nM): 186
CD40L expression (MFI) ([4]; CD4+, Post Thaw, TMP 100000 nM): 395
CD40L expression (MFI) ([4]; CD4+, Restim, TMP 0.1 nM): 631
CD40L expression (MFI) ([4]; CD4+, Restim, TMP 1 nM): 647
CD40L expression (MFI) ([4]; CD4+, Restim, TMP 10 nM): 645
CD40L expression (MFI) ([4]; CD4+, Restim, TMP 100 nM): 644
CD40L expression (MFI) ([4]; CD4+, Restim, TMP 1000 nM): 737
CD40L expression (MFI) ([4]; CD4+, Restim, TMP 10000 nM): 1382
CD40L expression (MFI) ([4]; CD4+, Restim, TMP 100000 nM): 6275
CD40L expression (MFI) ([4]; CD8+, Day 4, TMP 0.1 nM): 181
CD40L expression (MFI) ([4]; CD8+, Day 4, TMP 1 nM): 178
CD40L expression (MFI) ([4]; CD8+, Day 4, TMP 10 nM): 182
CD40L expression (MFI) ([4]; CD8+, Day 4, TMP 100 nM): 182
CD40L expression (MFI) ([4]; CD8+, Day 4, TMP 1000 nM): 204
CD40L expression (MFI) ([4]; CD8+, Day 4, TMP 10000 nM): 393
CD40L expression (MFI) ([4]; CD8+, Day 4, TMP 100000 nM): 1941
CD40L expression (MFI) ([4]; CD8+, Post Thaw, TMP 0.1 nM): 111
CD40L expression (MFI) ([4]; CD8+, Post Thaw, TMP 1 nM): 116
CD40L expression (MFI) ([4]; CD8+, Post Thaw, TMP 10 nM): 114
CD40L expression (MFI) ([4]; CD8+, Post Thaw, TMP 100 nM): 117
CD40L expression (MFI) ([4]; CD8+, Post Thaw, TMP 1000 nM): 118
CD40L expression (MFI) ([4]; CD8+, Post Thaw, TMP 10000 nM): 129
CD40L expression (MFI) ([4]; CD8+, Post Thaw, TMP 100000 nM): 236
CD40L expression (MFI) ([4]; CD8+, Restim, TMP 0.1 nM): 254
CD40L expression (MFI) ([4]; CD8+, Restim, TMP 1 nM): 257
CD40L expression (MFI) ([4]; CD8+, Restim, TMP 10 nM): 258
CD40L expression (MFI) ([4]; CD8+, Restim, TMP 100 nM): 255
CD40L expression (MFI) ([4]; CD8+, Restim, TMP 1000 nM): 258
CD40L expression (MFI) ([4]; CD8+, Restim, TMP 10000 nM): 382
CD40L expression (MFI) ([4]; CD8+, Restim, TMP 100000 nM): 1185
CD40L positive (T cells (CD4+ and CD8+); All Cells, 100 uM TMP): 71.6%
MFI (T cells (CD4+ and CD8+); All Cells, 100 uM TMP): 1109
CD40L positive (T cells (CD4+ and CD8+); All Cells, DMSO): 46.5%
MFI (T cells (CD4+ and CD8+); All Cells, DMSO): 434
CD40L positive (T cells (CD4+ and CD8+); CD4+, 100 uM TMP): 83.5%
MFI (T cells (CD4+ and CD8+); CD4+, 100 uM TMP): 1468
CD40L positive (T cells (CD4+ and CD8+); CD4+, DMSO): 58.3%
MFI (T cells (CD4+ and CD8+); CD4+, DMSO): 548
CD40L positive (T cells (CD4+ and CD8+); CD8+, 100 uM TMP): 32.1%
MFI (T cells (CD4+ and CD8+); CD8+, 100 uM TMP): 455
CD40L positive (T cells (CD4+ and CD8+); CD8+, DMSO): 4.1%
MFI (T cells (CD4+ and CD8+); CD8+, DMSO): 157
% CD40L (HEK 293T cells): 14.3%

B4: OT-001673: Soluble CD40L (sCD40L) construct (protein)
chain: GSSGISLIAALAVDYVIGMENAMPWNLPADLAWFKRNTLNKPVIMGRHTWESIGRPLPGRKNIILSSQPGTDDRVTWVKSVDEAIAACGDVPEIMVIGGGRVIEQFLPKAQKLYLTHIDAEVEGDTHFPDYEPDDWESVFSEFHDADAQNSHSYCFEILERRGSMHMQKGDQNPQIAAHVISEASSKTTSVLQWAEKGYYTMSNNLVTLENGKQLTVKRQGLYYIYAQVTFCSNREASSQAPFIASLCLKSPGRFERILLRAANTHSSAKPCGQQSIHLGGVFELQPGASVFVNVTDPSQVSHGTGFTSFGLLKL
ligand dependent regulation of soluble CD40L levels (HEK293T cells; ELISA): ligand dependent regulation
functionality in HEK-Blue CD40 assay (HEK-Blue CD40): higher functionality
